# From the supplement of paper PMC9112550, “Optimization of the antimicrobial peptide Bac7 by deep mutational scanning” (BMC Biology, 2022)
# Tested on: Escherichia coli TOP10
# Assay: shrunken log2 fold change of peptide-encoding DNA abundance (4.5 h post-induction vs induction); higher = less antimicrobial activity (less host growth inhibition)
# Settings: time post-induction: 4.5 h; library: site-saturation at positions 5, 18, 19, 20
# 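Also: peptides expressed intracellularly from a pBAD plasmid library in pooled LB shake-flask culture, induced with 0.3% L-arabinose, DNA abundance read by NGS, three biological replicates, DESeq2 with apeglm shrinkage.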
row,Sequence,shrunken log2 fold change
1,RRIRFRPPRLPRPRPRPYPQPRP,-0.356
2,RRIRKRPPRLPRPRPRPQAQPRP,0.0703
3,RRIRLRPPRLPRPRPRPSYMPRP,-0.802
4,RRIRYRPPRLPRPRPRPEMEPRP,-0.0352
5,RRIRPRPPRLPRPRPRPVNTPRP,-0.634
6,RRIRDRPPRLPRPRPRPYCLPRP,-0.0759
7,RRIRLRPPRLPRPRPRPCGIPRP,0.142
8,RRIRARPPRLPRPRPRPWFHPRP,-0.301
9,RRIRWRPPRLPRPRPRPKLHPRP,0.0953
10,RRIRLRPPRLPRPRPRPALRPRP,0.178
11,RRIRWRPPRLPRPRPRPQAMPRP,0.179
12,RRIRVRPPRLPRPRPRPQPHPRP,0.0498
13,RRIRQRPPRLPRPRPRPSECPRP,-0.0674
14,RRIRPRPPRLPRPRPRPTMSPRP,0.0176
15,RRIRTRPPRLPRPRPRPAMTPRP,0.126
16,RRIRWRPPRLPRPRPRPMTDPRP,0.0543
17,RRIRIRPPRLPRPRPRPYRSPRP,-0.186
18,RRIRKRPPRLPRPRPRPSQCPRP,0.127
19,RRIRFRPPRLPRPRPRPCRAPRP,0.0454
20,RRIRRRPPRLPRPRPRPCIYPRP,0.0603
21,RRIRCRPPRLPRPRPRPRMTPRP,0.296
22,RRIRDRPPRLPRPRPRPMIQPRP,-0.103
23,RRIRARPPRLPRPRPRPWRHPRP,0.333
24,RRIRYRPPRLPRPRPRPFHSPRP,-0.0599
25,RRIRTRPPRLPRPRPRPWILPRP,-0.23

row,Sequence,shrunken log2 fold change
1,RRIRYRPPRLPRPRPRPLAGPRP,0.0192
2,RRIRQRPPRLPRPRPRPWVQPRP,-0.0131
3,RRIRCRPPRLPRPRPRPTYDPRP,-0.609
4,RRIRSRPPRLPRPRPRPFDQPRP,-0.256
5,RRIRDRPPRLPRPRPRPEVHPRP,0.168
6,RRIRSRPPRLPRPRPRPGSSPRP,-0.168
7,RRIRNRPPRLPRPRPRPKTPPRP,0.228
8,RRIRMRPPRLPRPRPRPGTPPRP,1.02
9,RRIRGRPPRLPRPRPRPTYHPRP,0.0704
10,RRIRGRPPRLPRPRPRPQPCPRP,0.466
11,RRIRSRPPRLPRPRPRPGPWPRP,-0.0683
12,RRIRDRPPRLPRPRPRPSDYPRP,-0.566
13,RRIRGRPPRLPRPRPRPGPYPRP,0.324
14,RRIRRRPPRLPRPRPRPNAEPRP,0.0193
15,RRIRSRPPRLPRPRPRPCGTPRP,0.202
16,RRIRSRPPRLPRPRPRPSNPPRP,-0.257
17,RRIRYRPPRLPRPRPRPNVNPRP,-1.2
18,RRIRKRPPRLPRPRPRPIAYPRP,-0.0799
19,RRIRERPPRLPRPRPRPVFWPRP,0.39
20,RRIRWRPPRLPRPRPRPFDTPRP,-0.113
21,RRIRIRPPRLPRPRPRPTPTPRP,0.387
22,RRIRYRPPRLPRPRPRPKDPPRP,-0.236
23,RRIRNRPPRLPRPRPRPFGEPRP,-0.0176
24,RRIRDRPPRLPRPRPRPLQFPRP,0.0246
25,RRIRNRPPRLPRPRPRPYCPPRP,-0.187

row,Sequence,shrunken log2 fold change
1,RRIRFRPPRLPRPRPRPYPGPRP,0.00399
2,RRIRTRPPRLPRPRPRPEEHPRP,0.0062
3,RRIRQRPPRLPRPRPRPGTVPRP,-0.00591
4,RRIRFRPPRLPRPRPRPWWAPRP,-0.377
5,RRIRPRPPRLPRPRPRPGHEPRP,-0.202
6,RRIRIRPPRLPRPRPRPLPEPRP,0.0361
7,RRIRWRPPRLPRPRPRPCQIPRP,-0.0592
8,RRIRMRPPRLPRPRPRPGMCPRP,0.19
9,RRIRYRPPRLPRPRPRPELTPRP,0.075
10,RRIRFRPPRLPRPRPRPVWAPRP,0.137
11,RRIRMRPPRLPRPRPRPNNRPRP,-0.0376
12,RRIRHRPPRLPRPRPRPPPKPRP,0.906
13,RRIRQRPPRLPRPRPRPNESPRP,-0.0813
14,RRIRIRPPRLPRPRPRPGEDPRP,0.00101
15,RRIRKRPPRLPRPRPRPFWTPRP,0.0312
16,RRIRGRPPRLPRPRPRPTHFPRP,0.71
17,RRIRFRPPRLPRPRPRPDECPRP,-0.399
18,RRIRPRPPRLPRPRPRPHMKPRP,1.08
19,RRIRYRPPRLPRPRPRPGKHPRP,0.0354
20,RRIRDRPPRLPRPRPRPRCGPRP,0.565
21,RRIRPRPPRLPRPRPRPRPYPRP,0.173
22,RRIRTRPPRLPRPRPRPQLIPRP,-0.222
23,RRIRGRPPRLPRPRPRPEMLPRP,1.71
24,RRIRHRPPRLPRPRPRPMNDPRP,-0.108
25,RRIRFRPPRLPRPRPRPMEKPRP,0.273

row,Sequence,shrunken log2 fold change
1,RRIRPRPPRLPRPRPRPRDAPRP,0.635
2,RRIRMRPPRLPRPRPRPVVPPRP,-0.107
3,RRIRARPPRLPRPRPRPSLEPRP,0.455
4,RRIRTRPPRLPRPRPRPMPSPRP,-0.128
5,RRIRARPPRLPRPRPRPEGTPRP,0.251
6,RRIRIRPPRLPRPRPRPAFWPRP,0.15
7,RRIRGRPPRLPRPRPRPLYWPRP,-0.169
8,RRIRNRPPRLPRPRPRPLNRPRP,-0.327
9,RRIRQRPPRLPRPRPRPTNCPRP,-0.33
10,RRIRPRPPRLPRPRPRPFQHPRP,-0.00804
11,RRIRRRPPRLPRPRPRPVENPRP,0.0788
12,RRIRWRPPRLPRPRPRPTTEPRP,0.207
13,RRIRSRPPRLPRPRPRPVYYPRP,-0.71
14,RRIRRRPPRLPRPRPRPCAEPRP,0.393
15,RRIRWRPPRLPRPRPRPKMWPRP,0.737
16,RRIRGRPPRLPRPRPRPKASPRP,0.234
17,RRIRERPPRLPRPRPRPQMFPRP,0.0221
18,RRIRDRPPRLPRPRPRPTQTPRP,0.121
19,RRIRSRPPRLPRPRPRPDDNPRP,0.00575
20,RRIRFRPPRLPRPRPRPIVMPRP,-0.731
21,RRIRWRPPRLPRPRPRPERIPRP,0.0766
22,RRIRGRPPRLPRPRPRPIANPRP,0.42
23,RRIRMRPPRLPRPRPRPVVYPRP,-0.0377
24,RRIRFRPPRLPRPRPRPSFGPRP,-0.112
25,RRIRPRPPRLPRPRPRPTTVPRP,0.0207

row,Sequence,shrunken log2 fold change
1,RRIRERPPRLPRPRPRPYEFPRP,0.00902
2,RRIRDRPPRLPRPRPRPDWNPRP,-0.0851
3,RRIRCRPPRLPRPRPRPKCYPRP,-0.353
4,RRIRIRPPRLPRPRPRPVYKPRP,-0.834
5,RRIRWRPPRLPRPRPRPQAEPRP,0.0113
6,RRIRYRPPRLPRPRPRPGLPPRP,0.107
7,RRIRIRPPRLPRPRPRPDPAPRP,0.0747
8,RRIRMRPPRLPRPRPRPIVTPRP,-0.00781
9,RRIRNRPPRLPRPRPRPLLSPRP,0.1
10,RRIRTRPPRLPRPRPRPLCIPRP,-0.693
11,RRIRPRPPRLPRPRPRPFLEPRP,-0.214
12,RRIRQRPPRLPRPRPRPEMMPRP,0.151
13,RRIRHRPPRLPRPRPRPCTQPRP,-0.367
14,RRIRMRPPRLPRPRPRPYKGPRP,-0.046
15,RRIRVRPPRLPRPRPRPHDKPRP,-0.123
16,RRIRCRPPRLPRPRPRPEPYPRP,-0.364
17,RRIRMRPPRLPRPRPRPADDPRP,-0.00235
18,RRIRRRPPRLPRPRPRPWWQPRP,0.0834
19,RRIRMRPPRLPRPRPRPHCVPRP,0.0437
20,RRIRHRPPRLPRPRPRPYKQPRP,-0.0238
21,RRIRNRPPRLPRPRPRPKRMPRP,-0.056
22,RRIRLRPPRLPRPRPRPPCEPRP,0.123
23,RRIRCRPPRLPRPRPRPQNYPRP,-0.485
24,RRIRWRPPRLPRPRPRPEHMPRP,-0.122
25,RRIRDRPPRLPRPRPRPCLLPRP,0.491

row,Sequence,shrunken log2 fold change
1,RRIRYRPPRLPRPRPRPRDTPRP,-0.378
2,RRIRLRPPRLPRPRPRPKMNPRP,-0.37
3,RRIRQRPPRLPRPRPRPYCYPRP,-0.198
4,RRIRNRPPRLPRPRPRPFGWPRP,0.0221
5,RRIRWRPPRLPRPRPRPYNYPRP,-0.331
6,RRIRRRPPRLPRPRPRPMTKPRP,0.0629
7,RRIRSRPPRLPRPRPRPCVIPRP,-0.172
8,RRIRIRPPRLPRPRPRPQVWPRP,-0.0966
9,RRIRERPPRLPRPRPRPSNAPRP,-0.086
10,RRIRFRPPRLPRPRPRPFNFPRP,-1.17
11,RRIRTRPPRLPRPRPRPAQCPRP,0.18
12,RRIRKRPPRLPRPRPRPPAAPRP,0.932
13,RRIRFRPPRLPRPRPRPLIIPRP,-0.575
14,RRIRTRPPRLPRPRPRPFEVPRP,-0.101
15,RRIRVRPPRLPRPRPRPDNSPRP,-0.202
16,RRIRWRPPRLPRPRPRPLWNPRP,0.169
17,RRIRLRPPRLPRPRPRPNYCPRP,-0.31
18,RRIRSRPPRLPRPRPRPYPVPRP,-0.0856
19,RRIRHRPPRLPRPRPRPKNYPRP,-0.766
20,RRIRMRPPRLPRPRPRPQHVPRP,0.0365
21,RRIRVRPPRLPRPRPRPEHGPRP,-0.219
22,RRIRPRPPRLPRPRPRPADLPRP,0.0166
23,RRIRMRPPRLPRPRPRPTMTPRP,2.3
24,RRIRKRPPRLPRPRPRPTDRPRP,0.209
25,RRIRFRPPRLPRPRPRPHREPRP,-0.0534
